In patent US20210087288A1:

Legend:
[1] = molecular target: Cyno TfR extracellular domain (analogous ecd construct) (cynomolgus monkey); test: SPR, bispecific antibody
[2] = molecular target: Human TfR extracellular domain (ecd) containing an N-terminal His tag (human) (UniProt P02786); test: SPR, bispecific antibody
Sequence of Human TfR extracellular domain (ecd) containing an N-terminal His tag (human) (P02786 89-760 G142S): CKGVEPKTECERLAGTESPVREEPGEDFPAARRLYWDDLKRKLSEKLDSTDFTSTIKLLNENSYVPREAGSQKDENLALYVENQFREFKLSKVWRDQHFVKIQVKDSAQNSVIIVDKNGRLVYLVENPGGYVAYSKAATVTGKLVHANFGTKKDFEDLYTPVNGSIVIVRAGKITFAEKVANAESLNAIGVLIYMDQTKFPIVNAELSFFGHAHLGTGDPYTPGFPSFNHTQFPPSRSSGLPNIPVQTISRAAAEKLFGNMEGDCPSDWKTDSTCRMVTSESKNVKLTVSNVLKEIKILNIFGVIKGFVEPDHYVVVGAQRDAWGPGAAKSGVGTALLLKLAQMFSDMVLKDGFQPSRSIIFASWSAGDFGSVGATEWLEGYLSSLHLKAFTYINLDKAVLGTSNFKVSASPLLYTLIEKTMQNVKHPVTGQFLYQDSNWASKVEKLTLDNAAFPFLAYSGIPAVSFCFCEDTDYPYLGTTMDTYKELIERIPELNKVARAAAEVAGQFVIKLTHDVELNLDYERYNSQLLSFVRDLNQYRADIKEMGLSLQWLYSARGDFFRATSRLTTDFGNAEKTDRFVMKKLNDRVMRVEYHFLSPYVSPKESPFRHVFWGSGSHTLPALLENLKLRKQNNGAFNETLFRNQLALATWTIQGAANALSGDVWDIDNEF

Sequence of Cyno TfR extracellular domain (analogous ecd construct) (cynomolgus monkey) (Q5RDH6 other isoform, or with tags, fused parts or gaps): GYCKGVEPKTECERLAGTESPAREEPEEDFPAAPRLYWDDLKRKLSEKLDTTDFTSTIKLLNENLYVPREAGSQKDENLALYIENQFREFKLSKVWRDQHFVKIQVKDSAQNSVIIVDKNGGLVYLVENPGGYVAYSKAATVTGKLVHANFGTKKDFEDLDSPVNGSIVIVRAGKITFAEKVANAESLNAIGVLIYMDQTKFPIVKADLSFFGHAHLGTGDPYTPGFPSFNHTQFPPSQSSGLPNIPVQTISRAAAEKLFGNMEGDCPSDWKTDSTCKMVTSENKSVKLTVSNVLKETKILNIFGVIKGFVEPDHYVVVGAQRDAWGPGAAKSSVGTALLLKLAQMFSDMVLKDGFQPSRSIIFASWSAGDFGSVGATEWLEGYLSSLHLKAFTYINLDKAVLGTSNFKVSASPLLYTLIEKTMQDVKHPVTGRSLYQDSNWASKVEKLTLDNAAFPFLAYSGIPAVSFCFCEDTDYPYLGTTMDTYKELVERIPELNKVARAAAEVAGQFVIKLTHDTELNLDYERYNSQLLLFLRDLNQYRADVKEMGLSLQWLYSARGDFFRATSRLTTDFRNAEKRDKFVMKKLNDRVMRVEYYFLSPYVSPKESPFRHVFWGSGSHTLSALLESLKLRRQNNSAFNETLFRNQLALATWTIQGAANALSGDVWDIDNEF

B1: Anti-TfR^53A/BACE1 bispecific antibody, human IgG1 N297G (bispecific antibody, part only; not given: anti-BACE1 half-antibody, V domains shown, not shown: another chain or arm of the molecule; a dimerising Fc or GST; small tags and cut ends)
VH: EVQLVQSGAEVKKPGASVKVSCKASGYTFTSYWMHWVRQAPGQRLEWIGEINPANGRTNYIEKFKSRATLTVDKSASTAYMELSSLRSEDTAVYYCARGTRAYHYWGQGTMVTVSS
VL: DIQMTQSPSSLSASVGDRVTITCRASDNLYSNLAWYQQKPGKSPKLLVYDATNLADGVPSRFSGSGSGTDYTLTISSLQPEDFATYYCQHFWGTPLTFGQGTKVEIK
Work on B1 yielded a Kd [1] of 143 nM and a Kd [2] of 24 nM.
